Positions of bridges follow the written chain, without caps; N, C: chain ends. No end group written: not given here.
How the values were obtained:
IGFBP-3 = target: T1, IGFBP-3 (human, UniProt P17936 28-291); assay: BIAcore competition: peptide inhibits IGFBP-3 binding to IGF-I; the reference itself
T1 construct: also called rhIGFBP-3

IGFBP-1 [1] = target: T2, IGFBP-1 (human, UniProt P08833 26-259); assay: BIAcore competition: peptide inhibits IGFBP-1 binding to IGF-I; ratio against bp1-16
T2 construct: Biotinylated in the ELISA assays; also called rhIGFBP-1
T2 sequence (looked up): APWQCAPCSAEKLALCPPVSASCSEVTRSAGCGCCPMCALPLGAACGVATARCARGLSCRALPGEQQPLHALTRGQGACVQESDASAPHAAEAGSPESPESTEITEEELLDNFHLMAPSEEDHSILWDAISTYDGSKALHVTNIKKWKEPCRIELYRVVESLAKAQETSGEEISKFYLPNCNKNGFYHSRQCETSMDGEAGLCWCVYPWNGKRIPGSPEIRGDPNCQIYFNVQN

IGFBP-1 [2] = target: T2, IGFBP-1; assay: BIAcore competition: peptide inhibits IGFBP-1 binding to IGF-I; ratio against bp1-14
[3] = target: T3, recombinant human IGFBP-3 (human, UniProt P17936 28-291); assay: BIAcore competition: peptide dilutions with 20 nM IGFBP-3 over immobilized IGF-II
T3 construct: also called rhIGFBP-3
T3 sequence (P17936 28-291 limits assumed): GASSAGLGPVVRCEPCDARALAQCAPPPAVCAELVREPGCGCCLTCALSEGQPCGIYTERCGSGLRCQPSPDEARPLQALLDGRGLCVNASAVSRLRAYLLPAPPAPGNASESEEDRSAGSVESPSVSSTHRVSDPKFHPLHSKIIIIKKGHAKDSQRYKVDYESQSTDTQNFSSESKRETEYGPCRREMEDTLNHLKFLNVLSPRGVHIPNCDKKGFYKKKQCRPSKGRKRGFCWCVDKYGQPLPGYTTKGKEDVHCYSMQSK
Procedure: IGF-II was immobilized on a dextran chip for inhibition assays using a BIAcore™ 2000 surface-plasmon-resonance device (BIAcore, Inc., Piscataway, N.J.) to measure free binding protein. IGF-II was biotinylated as described above, and injected over a chip to which streptavidin had been coupled (BIAcore, Inc.) to give approximately 1500 RU of immobilized IGF-II. […] After incubation for ≧1 hour at room temperature, an aliquot of 20 µl was injected at a flow rate of 20 µl/min over the IGF-II chip.

IGFBP-1 [4] = target: T2, IGFBP-1; assay: ELISA competition: peptide inhibits IGFBP-1 binding to IGF-I; ratio to bp1-01 (wt)
IGFBP-1 [5] = target: T2, IGFBP-1; assay: BIAcore competition: peptide inhibits IGFBP-1 binding to IGF-I; the reference itself
IGFBP-1 [6] = target: T2, IGFBP-1; assay: BIAcore competition: peptide inhibits IGFBP-1 binding to IGF-I; position 3 is Ala in the wt
IGFBP-1 [7] = target: T2, IGFBP-1; assay: BIAcore competition: peptide inhibits IGFBP-1 binding to IGF-II; position 3 is Ala in the wt
IGFBP-1 [8] = target: T2, IGFBP-1; assay: biotinylated-IGFBP-1 ELISA: peptide inhibits IGFBP-1 binding to IGF-I; the reference itself
Excerpt: (§1) The peptide/IGFBP mix was then removed and the plate was washed ten times with PBS buffer containing 0.05% TWEEN-20™ surfactant.

IGFBP-1 [9] = target: T2, IGFBP-1; assay: ELISA competition: peptide inhibits IGFBP-1 binding to IGF-I; the reference itself
IGFBP-1 [10] = target: T2, IGFBP-1; assay: ELISA plate assay: peptide inhibits IGFBP-1 binding to IGF-I; the reference itself
IGFBP-1 [11] = target: T2, IGFBP-1; assay: BIAcore competition: peptide inhibits IGFBP-1 binding to IGF-II; the reference itself
[12] = target: T4, recombinant human IGFBP-1 (human, UniProt P08833 26-259); assay: cell-based or functional assay
T4 sequence (looked up): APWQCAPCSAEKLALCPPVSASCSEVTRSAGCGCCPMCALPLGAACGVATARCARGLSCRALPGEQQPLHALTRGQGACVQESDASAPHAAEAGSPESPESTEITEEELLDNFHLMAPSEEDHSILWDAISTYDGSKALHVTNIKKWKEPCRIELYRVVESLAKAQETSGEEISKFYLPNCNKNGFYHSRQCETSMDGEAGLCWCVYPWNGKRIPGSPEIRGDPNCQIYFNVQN

[13] = target: T4, recombinant human IGFBP-1; assay: ELISA: peptide dilutions with 20 nM biotinylated IGFBP-1 on IGF-I coated plate
Excerpt: as §1

IGFBP-1 [14] = target: T2, IGFBP-1; assay: BIAcore competition (starred): peptide inhibits IGFBP-1 binding to IGF-I; ratio to bp1-01 (wt)
[15] = target: T3, recombinant human IGFBP-3; assay: cell-based or functional assay
IGFBP-1 [16] = target: T2, IGFBP-1; assay: ELISA plate assay (starred peptide): peptide inhibits IGFBP-1 binding to IGF-I; ratio against bp1-16
IGFBP-1 [17] = target: T2, IGFBP-1; assay: ELISA plate assay (starred peptide): peptide inhibits IGFBP-1 binding to IGF-I; ratio against bp1-14
[18] = target: T4, recombinant human IGFBP-1; assay: phage ELISA titration on IGFBP-1 plate with IGF-I (FIG. 28)
Procedure: The plates were then washed ten times, as above, and a solution of rabbit anti-phage antibody mixed with a goat-anti-rabbit conjugate of horse radish peroxidase was added. After an incubation of 1 hour at room temperature, the plates were developed with a chromogenic substrate, o-phenylenediamine (Sigma). The reaction was stopped with addition of ½ volume of 2.5 M H_2SO_4. Optical density at 490 nm was measured on a spectrophotometric plate reader.

IGFBP-1 [19] = target: T2, IGFBP-1; assay: BIAcore competition: peptide inhibits IGFBP-1 binding to IGF-I; the reference bp1-16 itself

T1 sequence (P17936 28-291 limits assumed): as the sequence (P17936 28-291 limits assumed) above

SEEVCWPVAEWYLCNMWG (disulfide 5-14) [bp3-01-ox]
IC50 (mut)/IC50 (wt) (IGFBP-3): 1 ratio

CRAGPLQWLCEKYFSTY-NH2 (disulfide 1-10 (inferred), g3 bp1-01 selectant) [bp1-21B]
IC50 (116)/IC50 (mut) (IGFBP-1 [1]): 3.1 ratio | IC50 (114)/IC50 (mut) (IGFBP-1 [2]): 0.67 ratio

B1: BP3-4D3.11 (peptide)
peptide: VAWEVCWDRHDQGYICTTDS
modifications: disulfide 6-16
notes: Synthetic peptide corresponding to phage clone 4D3.11 (g8) and 3Bi.1 (g3); also called BP14; BP3-4D3.11 (BP14)
IC50 [3]: 1000 nM

CRAGPLQWLCEKAA [bp1-18]
IC50 (mut)/IC50 (wt) (IGFBP-1 [4]): 148 ratio

B2: bp1-01 (peptide)
peptide: CRAGPLQWLCEKYFG-NH2
modifications: disulfide 1-10; N-terminus assumed
SMILES: CC(C)C[C@@H]1NC(=O)[C@H](Cc2c[nH]c3ccccc23)NC(=O)[C@H](CCC(N)=O)NC(=O)[C@H](CC(C)C)NC(=O)[C@@H]2CCCN2C(=O)CNC(=O)[C@H](C)NC(=O)[C@H](CCCNC(=N)N)NC(=O)[C@@H](N)CSSC[C@@H](C(=O)N[C@@H](CCC(=O)O)C(=O)N[C@@H](CCCCN)C(=O)N[C@@H](Cc2ccc(O)cc2)C(=O)N[C@@H](Cc2ccccc2)C(=O)NCC(N)=O)NC1=O
notes: Synthetic 15-mer; also called (wt); A3
IC50 (mut)/IC50 (wt) (IGFBP-1 [5]): 1 ratio | IC50 (mut)/IC50 (wt) (IGFBP-1 [6]): 1 ratio | IC50 (mut)/IC50 (wt) (IGFBP-1 [7]): 1 ratio | IC50 (mut)/IC50 (wt) (IGFBP-1 [8]): 1 ratio | IC50 (mut)/IC50 (wt) (IGFBP-1 [9]): 1 ratio | IC50 (mut)/IC50 (wt) (IGFBP-1 [10]): 1 ratio | IC50 (mut)/IC50 (wt) (IGFBP-1 [11]): 1 ratio

B3: bp1-02 (peptide)
peptide: SEVGCRAGPLQWLCEKYFG-NH2
modifications: disulfide 5-14; N-terminus assumed
SMILES: CC(C)C[C@@H]1NC(=O)[C@H](Cc2c[nH]c3ccccc23)NC(=O)[C@H](CCC(N)=O)NC(=O)[C@H](CC(C)C)NC(=O)[C@@H]2CCCN2C(=O)CNC(=O)[C@H](C)NC(=O)[C@H](CCCNC(=N)N)NC(=O)[C@@H](NC(=O)CNC(=O)[C@@H](NC(=O)[C@H](CCC(=O)O)NC(=O)[C@@H](N)CO)C(C)C)CSSC[C@@H](C(=O)N[C@@H](CCC(=O)O)C(=O)N[C@@H](CCCCN)C(=O)N[C@@H](Cc2ccc(O)cc2)C(=O)N[C@@H](Cc2ccccc2)C(=O)NCC(N)=O)NC1=O
notes: 19-mer variant of bp1-01; also called bp1-02 (bp3)
IC50, KIRA assay (peptide plus IGF-I plus IGFBP-1) [12]: 187 nM | IC50 [13]: 50 nM

CKEGPLQWLCEKYF (g8 bp1-01 selectant) [bp1-12]
IC50 (mut)/IC50 (wt) (IGFBP-1 [14]): 2.9 ratio

CKEGPLLWLCEKYF (g8 bp1-01 selectant) [bp1-13]
IC50 (mut)/IC50 (wt) (IGFBP-1 [14]): 2.5 ratio

SEEVCWPVAEWYLCN (disulfide 5-14) [BP15]
IC50, KIRA assay (peptide with IGFBP-3:IGF-1 at a 3:1 ratio) [15]: 95000 nM

SEMVCRAGPLQWLCEIYF-NH2 (disulfide 5-14 (inferred), g3 bp1-01 selectant) [bp1-19]
IC50 (116)/IC50 (mut) (IGFBP-1 [16]): 9.9 ratio | IC50 (114)/IC50 (mut) (IGFBP-1 [17]): 2.1 ratio

SEVGCRAGPLQWLCEKYFSTY-NH2 (disulfide 5-14 (inferred), g3 bp1-01 selectant) [bp1-21A]
IC50 (116)/IC50 (mut) (IGFBP-1 [1]): 15 ratio | IC50 (114)/IC50 (mut) (IGFBP-1 [2]): 3.2 ratio

B4: peptide-phage clone HL-1 (g8 display) (peptide, not shown: large carriers)
chain: SEVGCRAGPLQWLCEKYF
modifications: not fully specified (C-terminus, bridges); cysteine pairing not given here; also: polyvalent display on phage particle
notes: Tested as a whole phage particle with polyvalent display; also called g8-phage peptide bp1-01
binding result [18]: binds

CRAGPLQWLCEKYF-NH2 (disulfide 1-10 (inferred), bp1-01 lacking the C-terminal Gly) [bp1-16]
IC50 (116)/IC50 (mut) (IGFBP-1 [19]): 1 ratio | IC50 (114)/IC50 (mut) (IGFBP-1 [2]): 0.21 ratio

CRKGPLQWLCEKYF (g8 bp1-01 selectant) [bp1-11]
IC50 (mut)/IC50 (wt) (IGFBP-1 [14]): 1.9 ratio

EARVCRAGPLQWLCEKYF-NH2 (disulfide 5-14 (inferred), g3 bp1-01 selectant) [bp1-20]
IC50 (116)/IC50 (mut) (IGFBP-1 [1]): 12 ratio | IC50 (114)/IC50 (mut) (IGFBP-1 [2]): 2.6 ratio

B5: bp1-01 (peptide)
peptide: CRAGPLQWLCEKYFG-NH2
modifications: disulfide 1-10; N-terminus assumed
SMILES: CC(C)C[C@@H]1NC(=O)[C@H](Cc2c[nH]c3ccccc23)NC(=O)[C@H](CCC(N)=O)NC(=O)[C@H](CC(C)C)NC(=O)[C@@H]2CCCN2C(=O)CNC(=O)[C@H](C)NC(=O)[C@H](CCCNC(=N)N)NC(=O)[C@@H](N)CSSC[C@@H](C(=O)N[C@@H](CCC(=O)O)C(=O)N[C@@H](CCCCN)C(=O)N[C@@H](Cc2ccc(O)cc2)C(=O)N[C@@H](Cc2ccccc2)C(=O)NCC(N)=O)NC1=O
notes: also called bp1-01 (bp3)
IC50, KIRA assay (peptide plus IGF-I plus IGFBP-1) [12]: 397 nM | IC50 [13]: 180 nM
